The values below come from paper PMC10539383, “Recognition and cleavage mechanism of intron-containing pre-tRNA by human TSEN endonuclease complex”.

The target in the data set is T1, TSEN2;TSEN34;TSEN15;TSEN54 (Homo sapiens;Homo sapiens;Homo …, UniProt Q8NCE0;Q9BSV6;Q8WW01;Q7Z6J9 1-465;1-310;1-171;1-526, |||).
T1 sequence 1: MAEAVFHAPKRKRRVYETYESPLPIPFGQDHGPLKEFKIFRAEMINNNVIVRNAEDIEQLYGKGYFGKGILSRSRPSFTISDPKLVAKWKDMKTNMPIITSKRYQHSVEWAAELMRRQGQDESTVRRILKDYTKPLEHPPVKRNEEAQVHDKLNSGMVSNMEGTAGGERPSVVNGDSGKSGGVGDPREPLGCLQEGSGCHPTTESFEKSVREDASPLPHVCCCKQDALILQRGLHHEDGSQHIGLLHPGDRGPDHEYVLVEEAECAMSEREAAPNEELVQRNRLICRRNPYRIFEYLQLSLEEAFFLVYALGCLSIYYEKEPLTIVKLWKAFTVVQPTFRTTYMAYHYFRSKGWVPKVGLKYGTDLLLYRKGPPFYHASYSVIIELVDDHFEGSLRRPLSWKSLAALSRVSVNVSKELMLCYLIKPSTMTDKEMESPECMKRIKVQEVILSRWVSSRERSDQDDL
T1 sequence 2: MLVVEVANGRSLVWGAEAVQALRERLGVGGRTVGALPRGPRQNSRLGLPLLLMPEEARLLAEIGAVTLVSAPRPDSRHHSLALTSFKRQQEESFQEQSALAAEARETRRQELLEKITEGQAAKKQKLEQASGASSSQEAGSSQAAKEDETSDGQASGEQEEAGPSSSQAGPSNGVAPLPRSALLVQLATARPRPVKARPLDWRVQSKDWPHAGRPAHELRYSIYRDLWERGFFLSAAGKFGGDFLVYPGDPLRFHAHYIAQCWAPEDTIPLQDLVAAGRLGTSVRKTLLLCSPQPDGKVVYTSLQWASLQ
T1 sequence 3: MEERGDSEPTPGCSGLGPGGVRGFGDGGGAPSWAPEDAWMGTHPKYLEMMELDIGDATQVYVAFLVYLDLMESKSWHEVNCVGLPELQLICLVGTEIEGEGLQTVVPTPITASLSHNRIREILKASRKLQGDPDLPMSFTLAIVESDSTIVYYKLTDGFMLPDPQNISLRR
T1 sequence 4: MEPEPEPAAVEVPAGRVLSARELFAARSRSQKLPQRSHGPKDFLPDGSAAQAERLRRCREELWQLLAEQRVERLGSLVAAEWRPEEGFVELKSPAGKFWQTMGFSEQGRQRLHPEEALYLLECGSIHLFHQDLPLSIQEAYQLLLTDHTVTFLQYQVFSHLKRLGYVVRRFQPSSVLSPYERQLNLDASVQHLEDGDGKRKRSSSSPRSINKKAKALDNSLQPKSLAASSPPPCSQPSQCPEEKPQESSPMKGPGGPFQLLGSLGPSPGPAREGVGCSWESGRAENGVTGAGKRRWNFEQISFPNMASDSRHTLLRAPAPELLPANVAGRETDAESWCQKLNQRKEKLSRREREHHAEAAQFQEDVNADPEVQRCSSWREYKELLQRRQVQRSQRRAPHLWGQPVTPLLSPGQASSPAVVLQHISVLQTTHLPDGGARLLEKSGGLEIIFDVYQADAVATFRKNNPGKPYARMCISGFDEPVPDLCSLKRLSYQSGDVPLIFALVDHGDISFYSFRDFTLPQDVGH
Description: cryo-EM structure (3.2 A); wild-type active complex; Protein (EM) buffer: 20 mM HEPES pH 8.0, 150 mM NaCl, 1 mM MgCl2, 5 mM DTT; complex formation conditions and temperature not in the material. The following applies: protein: recombinant;recombinant;recombinant;recombinant; tags: none stated;none stated;N-terminal 6xHis;N-terminal GST removed by TEV; copies: 1;1;1;1; pre-tRNA fold, single strand with anticodon-intron stem and 3' bulge.

B1: pre-tRNAArgTCT (structured_RNA)
RNA: GGGGGCUCUGUGGCGCAAUGGAUAGCGCAUUGGACUUCUAGUGACGAAUAGAGCAAUUCAAAGGUUGUGGGUUCGAAUCCCACCAGAGUCG
For B1, the binding result is recorded as “binds”.
